What was measured:
[1] = target: T1, recombinant human SLPI (Secretory leukocyte protease inhibitor), R&D Systems Cat#260-PI (human, UniProt P03973 25-131, biotinylated in the streptavidin-plate ELISAs and on SRBCs); experiment: ELISA, SLPI (60 ng/ml) + supernatant on plate-bound chymotrypsin
T1 construct: Bought protein; also called biotinylated SLPI; B-Cur12
Description: Antibodies were screened for ability to inhibit SLPI activity. The assay involves assessing SLPI binding to chymotrypsin and resultant inhibition of chymotrypsin enzyme activity in the presence or absence of antibody. Biotinylated bovine chymotrypsin (5 μg/ml) was incubated with streptavidin coated plates for 30 minutes at RT. Each plate was washed 5 times with dH₂O prior to addition of an anti-SLPI antibody mixture (30 μl of SLPI reconstituted in 100 mM Tris, 10 mM CaCl₂ and 0.1% HSA pH 7.5 mixed with 20 μl of monoclonal antibody supernatant being tested; final concentration SLPI 60 ng/ml; incubated for 1 hour at RT) and plates were incubated for 1 hour. Plates were washed 5 times with dH₂O then incubated with 50 μl of a polyclonal Goat anti-SLPI (purchased from R&D) at 1 μg/ml/well for 1 hour. After washing, 50 μl of a rabbit anti-goat HRP-conjugated antibody/well was added and incubated for 1 hour. After washing, 50 μl of TMB substrate/well was added.. The reaction was stopped by adding of 50 μl of 1M phosphoric acid/well. Plates were read at wavelength 450 nm.

[2] = target: T1, recombinant human SLPI (Secretory …); experiment: BIAcore 2000, 25 C, antibody captured on goat anti-human surface, SLPI injected
Description: BiaCore® analysis was used to determine binding affinity of anti-SLPI antibody to SLPI antigen. The analysis was performed at 25° C. using a BiaCore® 2000 biosensor equipped with a research-grade CM5 sensor chip. A high-density goat α human antibody surface over a CM5 BiaCore® chip was prepared using routine amine coupling. Antibody supernatents were diluted to ˜5 μg/mL in HBS-P running buffer containing 100 μg/mL BSA and 10 mg/mL carboxymethyldextran. The antibodies were then captured individually on a separate surface using a 2 minute contact time, and a 5 minute wash for stabilization of antibody baseline.
SLPI antigen was injected over each surface for 75 seconds, followed by a 3-minute dissociation. Double-referenced binding data were obtained by subtracting the signal from a control flow cell and subtracting the baseline drift of a buffer inject just prior to the SLPI injection. SLPI binding data for each mAb were normalized for the amount of mAb captured on each surface. The normalized, drift-corrected responses were also measured.

[3] = target: T2, SLPI of human tumour cell lines (endogenous; on cells or in conditioned media) (human, UniProt P03973 26-132); experiment: cell-based or functional assay
[4] = target: T2, SLPI of human tumour cell lines …; experiment: flow cytometry, 42C1 at 170 nM on OVCAR-4 cells
Description: (§1) FACS analysis of anti-SLPI antibody binding to OVCAR4, OVCAR-5, OVCAR-8, SK-OV-3, A2780, SF294, 786-0 cell lines was done as follows. Suspended cells were washed twice with ice-cold FACS buffer (SOURCE) and incubated with antibody 42C1 (170 nM/FACS buffer) for 1 hr then washed. Cells were incubated with a 1:500 dilution in FACS buffer of […] donkey anti-human IgG (H+L) (Jackson Immunolabs) for 30 minutes. Cells were washed and then fixed with 1% formaldehyde in PBS. Analysis was done using a FACS Calibur™ flow cytometer (Becton Dickinson, Frankin Lakes, N.J.).
(§2) 42C1 antibody bound SLPI on SLPI expressing ovarian cancer cell lines: OVCAR-4 (Geo Mean Ratio 37), OVCAR-5 (Geo Mean Ratio 10), and OVCAR-8 (Geo Mean Ratio 35) as compared to SLPI negative cell line 786-0 (Geo Mean Ratio 3).

[5] = target: T2, SLPI of human tumour cell lines …; experiment: flow cytometry, 42C1 at 170 nM on OVCAR-5 cells
Description: as §1, §2

[6] = target: T2, SLPI of human tumour cell lines …; experiment: flow cytometry, 42C1 at 170 nM on OVCAR-8 cells
Description: as §1, §2

T1 sequence (P03973 25-131): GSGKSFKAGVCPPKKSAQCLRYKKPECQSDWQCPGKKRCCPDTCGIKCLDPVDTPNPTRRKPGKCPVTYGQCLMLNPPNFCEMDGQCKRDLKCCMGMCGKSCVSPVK
T2 sequence (P03973 26-132 limits assumed): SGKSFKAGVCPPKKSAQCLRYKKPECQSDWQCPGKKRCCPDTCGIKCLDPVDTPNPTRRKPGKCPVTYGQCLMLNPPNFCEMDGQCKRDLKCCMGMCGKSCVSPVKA

B1: 43H7 (antibody, human IgG2, V domains shown)
VH: QVQLVESGGGVVQPGRSLRLSCAASGFTFSTYGMHWVRQAPGKGLEWVTFIWYDGRNKYYADSVKGRFTVSRDNSKNTLYLQMNSLRAEDTAVYYCARGDDYGDYHPHYYYYGLDVWGQGTTVTVSS
VL: DIVMTQTPLSLSVTPGQPASISCKSSQSLLDSDGKTYLYWYLQKPGQPPQLLIYEVSNRFSGVPDRFSGSGSGTDFTLKISRVEAEDVAYYYCMQSIQLPWTFGQGTKVEIK
notes: Fully human, XenoMouse XMG2; also called #11; Cur12.1 PL43 H7
- % Max [1]: 90%
- O.D. [1]: 0.666 OD450
- Kd [2]: 0.104 nM

B2: 9G12 (antibody, human IgG2, V domains shown)
VH: QVQLVESGGGVVQPGRSLRLSCAASGFTFSGYGMHWVRQAPGKGLEWVAFIWYNGNDNYYTDSVKGRFTISRDNSKNTLYLQMNSLRAEDTAVYYCARGDDYGDYHPHYYYYGMDVWGQGTTVTVSS
VL: DIVMTQTPLSLSVTPGQPASISCKSSQSLLDSDGKTYLYWYLQKPGQPPQLLIYEVSNRFSGVPDRFSGSGSGTDFTLKISRVEAEDIGVYYCLQSIQLPWTFGQGTKVEIK
notes: Fully human, XenoMouse XMG2; also called #36; Cur12.1 PL09 G12
- % Max [1]: 61%
- O.D. [1]: 0.452 OD450
- Kd [2]: 0.053 nM

B3: 35F1 (antibody, human IgG2, V domains shown)
VH: QVQLQESGPGLVKPSQTLSLTCTVSGGSIKSGDYYWSWVRQLPGKGLEWIGYIYYSGSTYYNPSLKSRVTISIDTSKNQFSLKLSSVTAADTAVYYCAREGSYYDSGGFDYWGQGTLVTVSS
VL: not shown
notes: Fully human, XenoMouse XMG2; also called #50; Cur12.1 PL35 F1
- IC50 of growth inhibition of IGROV-1 cells, clonogenic assay [3]: 163 nM
- IC50 of growth inhibition of SW480 cells, clonogenic assay [3]: 85 nM
- % Max [1]: 47%
- O.D. [1]: 0.35 OD450
- Kd [2]: 0.14 nM

B4: 42C1 (antibody, human IgG2, V domains shown)
VH: QVQLQESGPGLVKPSQTLSLTCTVSGVSISSGGYYWSWIRQHPGKGLEWIGYIYYSGSTYYNPSLKSRVTISVDTSKNQFSLKLSSVTAADTAVFYCAREGEYYDEGGFDYWGQGTLVTVSS
VL: not shown
notes: Fully human, XenoMouse XMG2; also called #24; Cur12.1 PL42 C1
- IC50 of growth inhibition of IGROV-1 cells, clonogenic assay [3]: 121 nM
- IC50 of growth inhibition of SW480 cells, clonogenic assay [3]: 85 nM
- Geo Mean Ratio [4]: 37
- Geo Mean Ratio [5]: 10
- Geo Mean Ratio [6]: 35
- % Max [1]: 103%
- O.D. [1]: 0.762 OD450
- Kd [2]: 0.116 nM
